± gives the uncertainty stated by the source.
B1: Chromodomain-helicase-DNA-binding protein 5, residues 338 to 390; numbered along this chain, Q8TDI0 (parent)
chain: YETDHQDYCEVCQQGGEIILCDTCPRAYHLVCLDPELEKAPEGKWSCPHCEKE

Variants of: B1
Test: abundance fitness (aPCA) (normalised: wild type 0, dead -1); higher = more abundant; growth selection in yeast, the domain comes from the species named
Settings: Homo sapiens
In the case of L20V, the abundance fitness is reported as 0.051 ± 0.1. With L20Y the abundance fitness was 0.169 ± 0.15. With C21A the abundance fitness was -0.563 ± 0.14. Work on C21D yielded an abundance fitness of -0.921 ± 0.17. C21E gave an abundance fitness of -1.08 ± 0.28. Variant C21F has an abundance fitness of -1.22 ± 0.28. Variant C21G has an abundance fitness of -0.853 ± 0.11. For C21I, the abundance fitness was -0.912 ± 0.35. Work on C21K yielded an abundance fitness of -0.805 ± 0.2. For C21L, the abundance fitness was -0.872 ± 0.15. C21M showed an abundance fitness of -0.701 ± 0.18. Variant C21N has an abundance fitness of -0.889 ± 0.27. Work on C21P yielded an abundance fitness of -0.907 ± 0.2. With C21Q the abundance fitness was -0.973 ± 0.28. With C21R the abundance fitness was -0.929 ± 0.14. With C21S the abundance fitness was -0.811 ± 0.13. With C21T the abundance fitness was -0.995 ± 0.23. With C21V the abundance fitness was -0.519 ± 0.13. With C21W the abundance fitness was -1.08 ± 0.23. C21Y showed an abundance fitness of -0.739 ± 0.17. D22A gave an abundance fitness of 0.149 ± 0.15. For D22C, the abundance fitness was -0.432 ± 0.15. D22E showed an abundance fitness of -0.101 ± 0.2. Variant D22F has an abundance fitness of -0.597 ± 0.21. Work on D22H yielded an abundance fitness of -0.078 ± 0.24. Work on D22I yielded an abundance fitness of -0.177 ± 0.21. D22K gave an abundance fitness of -0.171 ± 0.19. In the case of D22L, the abundance fitness is reported as -0.059 ± 0.12. Work on D22M yielded an abundance fitness of -0.185 ± 0.14. D22N showed an abundance fitness of -0.015 ± 0.14. For D22P, the abundance fitness was 0.111 ± 0.13. For D22R, the abundance fitness was -0.067 ± 0.1. With D22S the abundance fitness was -0.244 ± 0.12. D22T showed an abundance fitness of 0.187 ± 0.17. D22W showed an abundance fitness of -0.373 ± 0.17. D22Y showed an abundance fitness of 0.088 ± 0.21. Variant T23A has an abundance fitness of -0.545 ± 0.13. Variant T23C has an abundance fitness of -0.177 ± 0.23. For T23D, the abundance fitness was -0.09 ± 0.17. With T23E the abundance fitness was 0.026 ± 0.17. T23F showed an abundance fitness of 0.166 ± 0.16. In the case of T23G, the abundance fitness is reported as -0.305 ± 0.11. T23H gave an abundance fitness of -0.397 ± 0.23. In the case of T23I, the abundance fitness is reported as -0.135 ± 0.2. Work on T23K yielded an abundance fitness of -0.457 ± 0.22. With T23L the abundance fitness was -0.07 ± 0.12. With T23M the abundance fitness was 0.114 ± 0.17. Work on T23N yielded an abundance fitness of 0.034 ± 0.17. For T23P, the abundance fitness was -0.922 ± 0.22. Variant T23Q has an abundance fitness of -0.15 ± 0.2. T23R showed an abundance fitness of -0.12 ± 0.12. T23S gave an abundance fitness of -0.01 ± 0.12. T23W gave an abundance fitness of -0.443 ± 0.17. T23Y gave an abundance fitness of -0.161 ± 0.19. Work on C24D yielded an abundance fitness of -1.16 ± 0.35. Variant C24E has an abundance fitness of -0.979 ± 0.21. Variant C24F has an abundance fitness of -0.567 ± 0.29. Variant C24I has an abundance fitness of -0.88 ± 0.35. C24K gave an abundance fitness of -0.917 ± 0.23. With C24L the abundance fitness was -0.682 ± 0.13. C24M showed an abundance fitness of -0.772 ± 0.2. In the case of C24N, the abundance fitness is reported as -1.15 ± 0.48. C24P showed an abundance fitness of -0.437 ± 0.34. In the case of C24Q, the abundance fitness is reported as -0.879 ± 0.21. With C24R the abundance fitness was -0.804 ± 0.12. For C24S, the abundance fitness was -0.753 ± 0.13. With C24T the abundance fitness was -0.586 ± 0.19. Work on C24V yielded an abundance fitness of -0.979 ± 0.16. For C24W, the abundance fitness was -0.736 ± 0.14. With C24Y the abundance fitness was -0.784 ± 0.16. In the case of P25C, the abundance fitness is reported as -0.278 ± 0.3. Variant P25E has an abundance fitness of -0.287 ± 0.21. In the case of P25G, the abundance fitness is reported as -0.001 ± 0.11. P25H gave an abundance fitness of -0.833 ± 0.43. Variant P25I has an abundance fitness of 0.064 ± 0.24. Variant P25K has an abundance fitness of 0.109 ± 0.21. P25L showed an abundance fitness of -0.157 ± 0.13. Variant P25M has an abundance fitness of -0.167 ± 0.2. P25N showed an abundance fitness of -0.084 ± 0.22. With P25Q the abundance fitness was -0.093 ± 0.23. P25R gave an abundance fitness of -0.107 ± 0.12. With P25S the abundance fitness was -0.1 ± 0.14. Variant P25T has an abundance fitness of 0.057 ± 0.16. P25V showed an abundance fitness of -0.124 ± 0.12. With P25W the abundance fitness was -0.081 ± 0.16. With P25Y the abundance fitness was -0.08 ± 0.34. R26A gave an abundance fitness of 0.009 ± 0.13. Work on R26C yielded an abundance fitness of 0.012 ± 0.15. R26D showed an abundance fitness of -0.296 ± 0.16. For R26F, the abundance fitness was -0.211 ± 0.17. With R26G the abundance fitness was -0.029 ± 0.089. Variant R26H has an abundance fitness of 0.493 ± 0.19. R26I showed an abundance fitness of -0.059 ± 0.19. R26K showed an abundance fitness of 0.094 ± 0.17. R26L showed an abundance fitness of 0.154 ± 0.12. For R26M, the abundance fitness was 0.144 ± 0.14. R26P gave an abundance fitness of -0.87 ± 0.23. Work on R26Q yielded an abundance fitness of 0.205 ± 0.16. For R26S, the abundance fitness was 0.002 ± 0.1. R26T gave an abundance fitness of -0.436 ± 0.26. Variant R26V has an abundance fitness of -0.207 ± 0.13. R26W gave an abundance fitness of -0.18 ± 0.14. With R26Y the abundance fitness was -0.144 ± 0.19. A27C showed an abundance fitness of -0.093 ± 0.18. A27D showed an abundance fitness of -0.258 ± 0.17. A27E gave an abundance fitness of -0.55 ± 0.15. For A27F, the abundance fitness was -0.027 ± 0.14. Variant A27H has an abundance fitness of -0.097 ± 0.18. Work on A27I yielded an abundance fitness of -0.021 ± 0.21. A27K showed an abundance fitness of -0.242 ± 0.21. For A27L, the abundance fitness was -0.204 ± 0.13. In the case of A27M, the abundance fitness is reported as -0.29 ± 0.17. For A27N, the abundance fitness was 0.048 ± 0.21. In the case of A27P, the abundance fitness is reported as -0.231 ± 0.14. With A27Q the abundance fitness was 0.171 ± 0.19. A27R gave an abundance fitness of -0.086 ± 0.1. A27S gave an abundance fitness of -0.133 ± 0.12. With A27T the abundance fitness was 0.074 ± 0.14. With A27V the abundance fitness was -0.211 ± 0.12. In the case of A27W, the abundance fitness is reported as -0.186 ± 0.17. A27Y showed an abundance fitness of -0.159 ± 0.24. Y28A gave an abundance fitness of -0.085 ± 0.14. With Y28C the abundance fitness was 0.001 ± 0.16. Y28D gave an abundance fitness of -0.713 ± 0.28. For Y28E, the abundance fitness was -0.668 ± 0.19. In the case of Y28F, the abundance fitness is reported as -0.315 ± 0.19. For Y28G, the abundance fitness was -0.125 ± 0.092. For Y28H, the abundance fitness was -0.158 ± 0.23. Variant Y28I has an abundance fitness of -0.293 ± 0.2. In the case of Y28L, the abundance fitness is reported as -0.148 ± 0.13. In the case of Y28M, the abundance fitness is reported as -0.148 ± 0.16. Work on Y28N yielded an abundance fitness of -0.193 ± 0.28. In the case of Y28P, the abundance fitness is reported as -0.85 ± 0.22. Y28Q gave an abundance fitness of -0.709 ± 0.19. For Y28R, the abundance fitness was 0.023 ± 0.096. With Y28S the abundance fitness was -0.075 ± 0.12. Y28V gave an abundance fitness of 0.054 ± 0.12. In the case of Y28W, the abundance fitness is reported as -0.098 ± 0.12. Work on H29A yielded an abundance fitness of -0.5 ± 0.12. H29C gave an abundance fitness of 0.053 ± 0.16. Variant H29D has an abundance fitness of -0.451 ± 0.15. H29E showed an abundance fitness of -0.736 ± 0.16. H29F gave an abundance fitness of -1.07 ± 0.39. In the case of H29G, the abundance fitness is reported as -0.744 ± 0.099. H29K showed an abundance fitness of -0.793 ± 0.17. Variant H29L has an abundance fitness of -1.14 ± 0.15. H29M showed an abundance fitness of -0.547 ± 0.17. For H29N, the abundance fitness was -0.766 ± 0.32. In the case of H29P, the abundance fitness is reported as -0.672 ± 0.16. With H29Q the abundance fitness was -0.887 ± 0.2. H29S gave an abundance fitness of -0.882 ± 0.15. In the case of H29T, the abundance fitness is reported as -0.986 ± 0.2. For H29V, the abundance fitness was -1.1 ± 0.15. For H29W, the abundance fitness was -0.822 ± 0.17. H29Y showed an abundance fitness of -0.719 ± 0.18. Variant L30A has an abundance fitness of 0.094 ± 0.1. In the case of L30C, the abundance fitness is reported as -0.096 ± 0.18. L30D showed an abundance fitness of -0.206 ± 0.23. Work on L30E yielded an abundance fitness of 0.059 ± 0.12. L30F gave an abundance fitness of -0.063 ± 0.16. Work on L30G yielded an abundance fitness of 0.092 ± 0.096. In the case of L30H, the abundance fitness is reported as -0.194 ± 0.26. Work on L30I yielded an abundance fitness of -0.703 ± 0.33. L30K gave an abundance fitness of 0.04 ± 0.18. Variant L30M has an abundance fitness of 0.095 ± 0.087. With L30N the abundance fitness was -0.047 ± 0.19. L30P showed an abundance fitness of -0.414 ± 0.2.

From the Human Domainome abundance scans (Beltran et al. 2025)
